This is an account of results in publication PMC6331642.

Data set [1] has as its target P35670. Nature of the data set: SEC-MALS; Cu-WLN4 after incubation with TM; Superdex 75 10/300 GL, 50 mM MES pH 6.0, 150 mM NaCl, room temperature.
In data set [2] the target is P35670. The data set can be described thus: SEC-MALS; apo-WLN4 after incubation with TM; Superdex 75 10/300 GL, 50 mM MES pH 6.0, 150 mM NaCl, room temperature.
Data set [3] has as its target O00244. The data set can be described thus: SEC-MALS; Cu-Atox1 after reaction with TM, with 4.5 mM reducing agents.
The target of data set [4] is O00244. The data set can be described thus: SEC-MALS; apo-Atox1 after reaction with TM, with 4.5 mM reducing agents.

B1: WLN4, the fourth metal-binding domain of Wilson's disease protein (ATP7B) (protein)
chain: TCSTTLIAIAGMTCASCVHSIEGMISQLEGVQQISVSLAEGTATVLYNPSVISPEELRAAIEDMGFEASVVS
Consider B1, for which the N with TM in data set [1] and in data set [2] was 2 throughout.

B2: Atox1 copper chaperone (protein)
chain: MPKHEFSVDMTCGGCAEAVSRVLNKLGGVKYDIDLPNKKVCIESEHSMDTLLATLKKTGKTVSYLGLE
On to B2, for which the “N with TM” value was “both apo-Atox1 and Cu-Atox1 generated dimeric adducts following reaction with TM” in data set [3]; “both apo-Atox1 and Cu-Atox1 generated dimeric adducts following reaction with TM” in data set [4].
